Here are results for 22 sequences from the supplement of paper PMC9170038.

The test system of this series is MS2 coat protein. The series is described as follows: apparent KD of MS2 coat protein; designed switch direction (-1 OFF switch, 1 ON switch): -1; higher = weaker reporter binding. The essentials: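 Designed RNA switches with common flanks were transcribed on Illumina chips by stalled E. coli RNA polymerase and titrated with SNAP-549-labelled MS2 coat protein, from 0.7 or 1.5 nM doubling to 3 µM, in Tris-HCl pH 7.5 buffer with KCl, MgCl2, BSA, DTT, tRNA and Tween-20. Steps lasted 0.8–1.5 h (lowest) to 10–20 min (highest). Titrations ran without input, with 200 uM small-molecule ligand, or with an oligonucleotide input. Normalised cluster fluorescence was curve-fitted, and apparent KD is the per-design median over clusters.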

Setting [1] is: input ligand: microRNA oligo, concentration not stated.
Where [2] appears, read: Eterna round: R95, input ligand: microRNA oligo, concentration not stated.

“GCAAGGGAAGGAUAUACAUUACGACCGUCAUAGUACCUGCGACAUGAGGAUCACCCAUGUAGAAGGUCCAGCGG [EX2 C.13] (Eterna round: R97, puzzle: Exclusion 2)”: the “apparent KD of MS2 coat protein” value (input ligand: FMN 200 uM) worked out at 17.4 nM and the “apparent KD of MS2 coat protein” value (input ligand: none) was found to be 13.3 nM.

Take “GCACAGGCAGGAUAUACAUGAGGAUCACCCAUGUGAUCCCUUAAGUACAAAAGUACAAGUAGAAGGGCCUGUGC [Omei Ex3 Model Bachelor's Dilema v43] (Eterna round: R97, puzzle: Exclusion 3)”: the “apparent KD of MS2 coat protein” value amounted to 21.2 nM (input ligand: FMN 200 uM) and 916 nM (input ligand: none).

For the sequence “GCACCAUGGCUUACUAGCCGUUAAACAUGAGGAUCACCCAUGUAGGAUAUGGUCUGGAUUACAGGCCAGAAGGGCGUAAGGUGC [JL Eli 026 mod] (Eterna round: R96, puzzle: Exclusion NG 3)”, the “apparent KD of MS2 coat protein” value by setting is: (input ligand: FMN 200 uM) 15.9 nM; under setting [1], 13.1 nM; (input ligand: none) 19.8 nM.

Take “GCACGGAAUGUAGGAUAUUAGUGCGAUUAGCACUGAGAAGGACAUGAGGAUCACCCAUGUAACUCAAUAAUAAACCUUCCGUGC [Eli exng1 - 045] (Eterna round: R96, puzzle: Exclusion NG 1)”: the “apparent KD of MS2 coat protein” value by setting is: (input ligand: FMN 200 uM) 11.2 nM; under setting [1], 8.85 nM; (input ligand: none) 12.2 nM.

For the sequence “GCACGGAGUGUAGGAUAUCUGUGCGAUUAGCUCAGAGAAGGACACAUGAGGAUCACCCAUGUGUAACAACACAAUAAUCCGUGC [Eli exng1 - 072] (Eterna round: R96, puzzle: Exclusion NG 1)”, the “apparent KD of MS2 coat protein” value (input ligand: FMN 200 uM) is 12.3 nM, the “apparent KD of MS2 coat protein” value under setting [1] turned out to be 11.2 nM and the “apparent KD of MS2 coat protein” value (input ligand: none) was found to be 14.2 nM.

On to “GCACGGAGUGUAGGAUAUCUGUGCGAUUAGCUCAGAGAAGGACACAUGAGGAUCACCCAUGUUACCUCAAUUAGCCUUCCGUGC [Eli exng1 - 032] (Eterna round: R96, puzzle: Exclusion NG 1)”, for which the “apparent KD of MS2 coat protein” value is 30.4 nM (input ligand: FMN 200 uM), 17 nM under setting [1] and 19 nM (input ligand: none).

Turning to “GCACGGUAAGUGAGGAUAUACCUCUGGAUACAGAGGUAGAAGGCACAUGAGGAUCACCCAUGUCCAAGCCGUGC [Fiskers BMX 4 - 84] (puzzle: Brourd's mod of Exclusion 4)”, the “apparent KD of MS2 coat protein” value under setting [2] stood at 22.8 nM.

As for “GCACUGCGAGGAUAUACAUGAGGAUCACCCAUGUGUCGGCAGCCAUGGUAGUACAAAUGUAGAAGGCGCGUAAA [EX3 #50] (Eterna round: R97, puzzle: Exclusion 3)”, the “apparent KD of MS2 coat protein” value is, setting by setting: (input ligand: FMN 200 uM) 85.6 nM; (input ligand: none) 587 nM.

Consider “GCACUGGCAGGAUAUACAUGAGGAUCACCCAUGUGAUCCCUUAGGUACAAAAGUACAAGUAGAAGGGCCUGUGC [Omei Ex3 Model Bachelor's Dilema v44] (Eterna round: R97, puzzle: Exclusion 3)”, for which the “apparent KD of MS2 coat protein” value by setting is: (input ligand: FMN 200 uM) 52.2 nM; (input ligand: none) 845 nM.

With “GCAGACGUAGUGAGGAUAUGCUCUACCUCGGUAGAGCAGAAGGCACAUGAGGAUCACCCAUGUGACUCCUCAUC [Omei Ex4B B18] (Eterna round: R97, puzzle: Brourd's mod of Exclusion 4)”, the “apparent KD of MS2 coat protein” value reads like this: (input ligand: FMN 200 uM) 49.2 nM; (input ligand: none) 20.1 nM.

For the sequence “GCAGAUGAAGUGAGGAUAUGCUCUACCUCGGUAGAGCAGAAGGCACAUGAGGAUCACCCAUGUGAUUCAUCUGC [Omei Ex4B B6] (Eterna round: R97, puzzle: Brourd's mod of Exclusion 4)”, the “apparent KD of MS2 coat protein” value is, setting by setting: (input ligand: FMN 200 uM) 35.4 nM; (input ligand: none) 17 nM.

“GCAGCAAACCCAAUUAAAACCACAUGAGGAUCACCCAUGUCUCAGGAUAUGGUCUGGAUUACAGGCCAGAAGGGAGAAAGCUGC [Eli exng3 - 052] (Eterna round: R96, puzzle: Exclusion NG 3)”: the “apparent KD of MS2 coat protein” value (input ligand: FMN 200 uM) was 16.2 nM, the “apparent KD of MS2 coat protein” value under setting [1] is 10.7 nM and the “apparent KD of MS2 coat protein” value (input ligand: none) amounted to 17.7 nM.

Turning to “GCAGCAUAGUCGGAAACGACAGAACAUGAGGAUCACCCAUGUCAGGAUAUGGUCUGGAUUACAGGCCAGAAGGGACGAAGCUGC [Eli exng3 - 010] (Eterna round: R96, puzzle: Exclusion NG 3)”, the “apparent KD of MS2 coat protein” value is 13.5 nM (input ligand: FMN 200 uM), 11.4 nM under setting [1] and 16 nM (input ligand: none).

With “GCAGGCGACUAGGCUCGUCUUAUUUUGAGAAGAUUGAAAACAUGAGGAUCACCCAUGUUUGUGGGAGAGUUGGAGUG [JR_SV3TOV2_Sub013] (puzzle: Sensor v3, turn-off variant 2)”, the “apparent KD of MS2 coat protein” value by setting is: (Eterna round: R95, input ligand: FMN 200 uM) 59.4 nM; under setting [2], 73 nM; (Eterna round: R95, input ligand: none) 65.3 nM.

In the case of “GCAGUAUGAGUUAGGAUAUGAUGAUUUUUAUUAAAUCAGAAGGAACUUGAGGAUCACCCAAGUAAAGAAUUGGU [JR_BMEx4_Sub069] (Eterna round: R97, puzzle: Brourd's mod of Exclusion 4)”, the “apparent KD of MS2 coat protein” value by setting is: (input ligand: FMN 200 uM) 23.3 nM; (input ligand: none) 20.4 nM.

“GCAGUCAAAGUGAGGAUAUCUAGAGCGAUAGCUCUAGAGAAGGCACAUGAGGAUCACCCAUGUGAUCAGACUGC [BmEx4/7-A4'1] (Eterna round: R97, puzzle: Brourd's mod of Exclusion 4)”: the “apparent KD of MS2 coat protein” value (input ligand: FMN 200 uM) was found to be 605 nM and the “apparent KD of MS2 coat protein” value (input ligand: none) was 257 nM.

In the case of “GCAGUGUCAGGAUAUUCGAGUUCGAGUGAAAGCUUGAGCUUGAAGAAGGGACAUGAGGAUCACCCAUGUGCUGU [-28.7, -27.7 kcal, A 27%, 1bis-(ca)1bis] (Eterna round: R97, puzzle: Exclusion 4)”, the “apparent KD of MS2 coat protein” value runs as follows: (input ligand: FMN 200 uM) 117 nM; (input ligand: none) 42.1 nM.

Take “GCAGUGUGAGUUAGGAUAUGAUGAUUUUUUAUUGGUCAGAAGGAACUUGAGGAUCACCCAAGUUAGGAAUUGGU [JR_BMEx4_Sub075] (Eterna round: R97, puzzle: Brourd's mod of Exclusion 4)”: the “apparent KD of MS2 coat protein” value was found to be 40.3 nM (input ligand: FMN 200 uM) and 33.1 nM (input ligand: none).

In the case of “GCAGUUCGAGUUAGGAUAUGAUGUUAAUUCGGAUAUCAGAAGGAACUUGAGGAUCACCCAAGUAUAGAUGUUGC [JR_BMEx4_Sub060] (Eterna round: R97, puzzle: Brourd's mod of Exclusion 4)”, the “apparent KD of MS2 coat protein” value runs as follows: (input ligand: FMN 200 uM) 29.6 nM; (input ligand: none) 18.6 nM.

In the case of “GCAUCCAAAGUGAGGAUAUACCUCUGGAUACAGAGGUAGAAGGCACAUGAGGAUCACCCAUGUUACUAGGAUGC [Fiskers BMX 4 - 35] (puzzle: Brourd's mod of Exclusion 4)”, under setting [2], the “apparent KD of MS2 coat protein” value came out at 13.2 nM.

For “GCAUGCUCCGAGGAUAUCGAAGCUAAUUAUGCACGAGAAGGCGGAACAUGAGGAUCACCCAUGUGAUGCCAAUG [Qutequen] (Eterna round: R97, puzzle: Exclusion 6)”, the “apparent KD of MS2 coat protein” value worked out at 51.9 nM (input ligand: FMN 200 uM) and 21.6 nM (input ligand: none).

On to “GCAUGUCUUAAGGAUAUGCUAAGGCGUGAGCCAGCAGAAGGUAAGACAUGAGGAUCACCCAUGUUUUCCUAAAA [jl-ex6-4.33 ViennaUCT mod] (Eterna round: R97, puzzle: Exclusion 6)”, for which the “apparent KD of MS2 coat protein” value is, setting by setting: (input ligand: FMN 200 uM) 68.5 nM; (input ligand: none) 18.9 nM.
